Like-named read-outs stand apart in the source and are kept apart here.

Assay [1] concerns the target recombinant human APC/C (without CDH1) (human) (UniProt Q9H1A4). Briefly: enzyme inhibition.
Assay [2] shares this target. Briefly: enzyme inhibition. This is another data set of the same source.

As a reminder, the Ki is the dissociation constant of the complex between target and ligand, obtained from inhibition or displacement. With “EMI1^T (synthetic peptide corresponding to the EMI1 C-terminal tail)”, the Ki in assay [1] turned out to be 48 µM; in assay [2], 13 µM.

The values above are taken from publication PMC3742808.
